The values below come from patent US20100291638.

Bounds are passed on as bounds.

Series [1] deals with T1, DNA polymerase clone 347 (uncultured hot spring virus (Great Boiling Spring)).
T1 sequence: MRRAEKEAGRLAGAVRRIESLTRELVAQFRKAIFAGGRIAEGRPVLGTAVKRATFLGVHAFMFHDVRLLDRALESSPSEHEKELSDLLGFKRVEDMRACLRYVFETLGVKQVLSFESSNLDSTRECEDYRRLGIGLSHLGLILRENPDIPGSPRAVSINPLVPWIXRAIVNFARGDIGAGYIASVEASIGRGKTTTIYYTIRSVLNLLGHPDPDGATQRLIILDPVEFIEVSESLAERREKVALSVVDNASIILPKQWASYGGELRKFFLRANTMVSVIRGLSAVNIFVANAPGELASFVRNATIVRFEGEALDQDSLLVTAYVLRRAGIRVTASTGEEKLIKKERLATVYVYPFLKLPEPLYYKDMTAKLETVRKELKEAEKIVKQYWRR
The note with it: dNTP incorporation; background <500.

Series [2] relates to T2, DNA polymerase 3173 (uncultured hot spring virus (Octopus Spring)).
T2 sequence: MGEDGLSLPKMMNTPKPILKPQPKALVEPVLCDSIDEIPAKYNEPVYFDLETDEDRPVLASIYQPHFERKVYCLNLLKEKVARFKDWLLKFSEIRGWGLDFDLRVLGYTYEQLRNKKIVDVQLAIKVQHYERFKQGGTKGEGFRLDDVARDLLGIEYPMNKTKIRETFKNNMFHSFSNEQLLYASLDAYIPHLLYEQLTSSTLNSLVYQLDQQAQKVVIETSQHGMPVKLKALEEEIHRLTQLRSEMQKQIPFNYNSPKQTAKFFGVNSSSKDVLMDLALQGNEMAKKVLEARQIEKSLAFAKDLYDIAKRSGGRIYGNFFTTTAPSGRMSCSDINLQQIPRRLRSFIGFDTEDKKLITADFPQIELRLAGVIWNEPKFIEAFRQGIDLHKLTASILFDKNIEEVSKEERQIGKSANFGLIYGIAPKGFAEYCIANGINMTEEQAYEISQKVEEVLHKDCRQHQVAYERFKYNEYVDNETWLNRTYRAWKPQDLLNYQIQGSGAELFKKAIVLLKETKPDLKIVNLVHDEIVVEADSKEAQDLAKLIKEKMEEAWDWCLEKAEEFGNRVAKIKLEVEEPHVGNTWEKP
The settings on record: dNTP incorporation, 60 C, 2 mM MgSO4; background <100 cpm.

With activated calf thymus DNA, the figures for the activity in series [1] and in series [2] were 18700 cpm and greater than 1000 cpm, respectively.
